Legend:
human MIP-1β (CCL4) = molecular target: T1, human MIP-1β (CCL4) (human, UniProt P13236 24-92); experiment: direct ELISA, chemokine coated at 10 ng/well, fusion at 1 µg/well
T1 construct: Bought recombinant chemokine; also called human CCL4
T1 sequence (looked up): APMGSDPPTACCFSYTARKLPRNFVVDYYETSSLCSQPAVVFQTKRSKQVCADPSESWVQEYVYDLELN
Protocol: (§1) The binding specificity of the murine CCR5-IgG soluble receptor to various commercially available human recombinant chemokines (R&D Systems, Minneapolis, N. Mex.) MIP-1α (CCL3), MIP-1β (CCL4) and RANTES as well as the murine recombinant chemokines (R&D Systems, Minneapolis, N. Mex.) MIP-1α (CCL3) and ITAC was determined by direct ELISA as follows: 96-well ELISA plates (Nunc, Roskilde, Denmark) were coated with 10 ng/well of human CCL3, CCL4, CCL5, as well as murine CCL3 or ITAC, and blocked with 1% BSA in PBS. Wells were washed and incubated with 1 μg/well CCR5(EC2)-IgG overnight. Wells were washed and the presence of CCR5(EC2)-IgG was detected with goat anti mouse IgG-HRP antibody (Jackson ImmunoResearch lot no. 58734). Results are shown as O.D. reading at 450 nm.

human RANTES (CCL5) = molecular target: T2, human RANTES (CCL5) (human, UniProt P13501 24-91); experiment: as above
T2 construct: Bought recombinant chemokine; also called human CCL5
T2 sequence (looked up): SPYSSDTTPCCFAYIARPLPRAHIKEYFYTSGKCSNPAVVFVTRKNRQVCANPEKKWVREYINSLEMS
Protocol: as §1

murine MIP-1α (CCL3) = molecular target: T3, murine MIP-1α (CCL3) (murine, UniProt P10855 24-92); experiment: direct ELISA, chemokine coated at 10 ng/well, fusion at 10-1000 ng/ml
T3 construct: Bought recombinant chemokine; also called mCCL3; murine CCL3
T3 sequence (looked up): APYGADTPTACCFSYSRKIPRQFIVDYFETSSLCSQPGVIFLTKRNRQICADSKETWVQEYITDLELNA
Protocol: (§2) The binding specificity of the different extracellular domains (EC1, EC2, EC3 and N) of the murine CCR5-IgG fusion proteins to various commercially available murine recombinant […] chemokines (R&D Systems, Minneapolis, N. Mex. including MIP-1α (CCL3), (CCL4) and RANTES (CCL5) was determined by direct ELISA as follows: 96-well ELISA plates (Nunc, Roskilde, Denmark) were coated with 10 ng/well of murine CCL3, CCL4 or […] and blocked with 1% BSA in PBS. Wells were washed and incubated with 10 ng/ml, 100 ng/ml or 1000 ng/ml CCR5-IgG (EC1, EC2, EC3, N) at a concentration overnight. Wells were washed and the presence of CCR5-IgG was detected with goat anti mouse IgG-HRP (Jackson ImmunoResearch lot no. 58734). Results are shown as O.D. reading at 450 nm.

murine MIP-1β (CCL4) = molecular target: T4, murine MIP-1β (CCL4) (murine, UniProt P14097 24-92); experiment: as above
T4 construct: Bought recombinant chemokine; also called mCCL4; murine CCL4
T4 sequence (looked up): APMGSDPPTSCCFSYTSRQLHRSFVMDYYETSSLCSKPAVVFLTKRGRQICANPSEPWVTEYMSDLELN
Protocol: as §2

murine RANTES (CCL5) = molecular target: T5, murine RANTES (CCL5) (murine, UniProt P30882 24-91); experiment: as above
T5 construct: Bought recombinant chemokine; also called mCCL5; murine CCL5
Protocol: as §2

T5 sequence (P30882 24-91 limits assumed): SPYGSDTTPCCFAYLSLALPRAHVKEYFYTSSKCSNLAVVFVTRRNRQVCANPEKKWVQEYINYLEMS

- binding result (human MIP-1β (CCL4)): binds
- binding result (human RANTES (CCL5)): binds
- binding result (murine MIP-1α (CCL3)): binds
- binding result (murine MIP-1β (CCL4)): binds
- binding result (murine RANTES (CCL5)): binds
B1: mCCR5(EC2)-IgG (Fc fusion)
chain: DAAQPARRARRTKLRSQKEGFHYTCSPHFPHTQYHFWKSFQTLKLEVPRDCGCKPCICTVPEVSSVFIFPPKPKDVLTITLTPKVTCVVVDISKDDPEVQFSWFVDDVEVHTAQTQPREEQFNSTFRSVSELPIMHQDCLNGKEFKCRVNSAAFPAPIEKTISKTKGRPKAPQVYTIPPPKEQMAKDKVSLTCMITDFFPEDITVEWQWNGQPAENYKNTQPIMDTDGSYFVYSKLNVQKSNWEAGNTFTCSVLHEGLHNHHTEKSLSHSPGKGPEQKLISEEDLNSAVDHHHHHH
notes: It may include the vector's Ig-kappa leader and tags; also called murine CCR5(EC2)-IgG; CCR5-Ig(E2)
